Measurements taken from publication PMC10448171, “Photocycle alteration and increased enzymatic activity in genetically modified photoactivated adenylate cyclase OaPAC” (The Journal of Biological Chemistry, 2023).

Substrate: Nc1ncnc2c1ncn2[C@@H]1O[C@H](COP(=O)(O)OP(=O)(O)OP(=O)(O)O)[C@@H](O)[C@H]1O
Test: EnzChek pyrophosphate coupled assay, A360, Michaelis-Menten fit
Format: biochemical, Oxynema acuminatum
Conditions: continuous illumination; 0-500 μM ATP; 1 μM enzyme
Text: EnzChek pyrophosphate coupled assay, A360, Michaelis-Menten fit on OaPAC

Protein | Km | Vmax | kcat
OaPAC (Oxynema acuminatum PCC 6304; D67N) (protein, full-length, 366 residues, homodimer; N-terminal BLUF domain and C-terminal class III AC domain; pCold-I (Ni-NTA purified), E. coli BL21(DE3); Superdex 200) MKRLTYISKFSRPLSGDEIEAIGRISSQKNQQANVTGVLLCLDGIFFQILEGEAEKIDRIYERILANERHTDILCLKSEVEVQERMFPDWSMQTINLDENTDFLIRPIKVLLQTLTESHRILEKYTQPSIFKIISQGTNPLNIRPKAVEKIVFFSDIVSFSTFAEKLPVEEVVSVVNSYFSVCTAIITRQGGEVTKFIGDCVMAYFDGDCADQAIQASLDILMELEILRNSAPEGSPLRVLYSGIGLAKGKVIEGNIGSELKRDYTILGDAVNVAARLEALTRQLSQALVFSSEVKNSATKSWNFIWLTDSELKGKSESIDIYSIDNEMTRKSSGGLEIARNIGHYLERVGDRQPSQIFGVKSLPL | 0.041 ± 0.005 mM | 0.100 ± 0.002 mM/min | 50.05 min⁻¹
OaPAC (Oxynema acuminatum PCC 6304) (protein, full-length, 366 residues, homodimer; N-terminal BLUF domain and C-terminal class III AC domain; pCold-I (Ni-NTA purified), E. coli BL21(DE3); Superdex 200) MKRLTYISKFSRPLSGDEIEAIGRISSQKNQQANVTGVLLCLDGIFFQILEGEAEKIDRIYERILADERHTDILCLKSEVEVQERMFPDWSMQTINLDENTDFLIRPIKVLLQTLTESHRILEKYTQPSIFKIISQGTNPLNIRPKAVEKIVFFSDIVSFSTFAEKLPVEEVVSVVNSYFSVCTAIITRQGGEVTKFIGDCVMAYFDGDCADQAIQASLDILMELEILRNSAPEGSPLRVLYSGIGLAKGKVIEGNIGSELKRDYTILGDAVNVAARLEALTRQLSQALVFSSEVKNSATKSWNFIWLTDSELKGKSESIDIYSIDNEMTRKSSGGLEIARNIGHYLERVGDRQPSQIFGVKSLPL | 0.031 ± 0.001 mM | 0.064 ± 0.007 mM/min | 32.2 min⁻¹
